Results published in the DeepSol protein solubility set.

Assay: soluble on expression in E. coli; label from the status in PepcDB or PDB records
For “MVEELFYKKILKNLFSDPVQITLWNGETIQYGEGEPQFHVTFHKPLSKKEIAKDPSIAFGEAYMNGDLEIEGNLEKAIQSIYKRQDSFLGDSKLQYFKSKWNFSKQKNKDDIAHHYDIGNDFYKLWLDETMTYSCAYFQNEQDSLTTAQHNKVNHILKKLNLQKGDTLLDIGCGWGELITAAAKQYGVKAMGVTLSEEQYAKASERIKQEGLTDLVEVSLLDYRDIKNQKFDKIVSVGMIEHVGKDNITQYFETVNTLLNDGGISLLHCITSPANGGATNGWIEKYIFPGGYVPAVNELITNMTNEQFFIVDVESLRRHYGKTLQHWARNFENVMEEVRKTKDERFIRMWRLYLNACAASFFTGNIDLHQFVFTKGINDTIPMTRSYMYE”, the “soluble on expression in E. coli” value was “not soluble”.
With “MVEIKLENIVKKFGNFTALNNINLKIKDGEFMALLGPSGSGKSTLLYTIAGIYKPTSGKIYFDEKDVTELPPKDRNVGLVFQNWALYPHMTVYKNIAFPLELRKAPREEIDKKVREVAKMLHIDKLLNRYPWQLSGGQQQRVAIARALVKEPEVLLLDEPLSNLDALLRLEVRAELKRLQKELGITTVYVTHDQAEALAMADRIAVIREGEILQVGTPDEVYYKPKYKFVGGFLGNPPMNFVEAKVEDGKLVITEKSKLPIPKQYVEIVKETGITEVIIGFRPHDAEIVKGEGEGIVGEVYSFEPLGREQIVTVSVNDSIVKVFAPEGEHFSFGEKVTIKVKEELLVLFDKKTEKALEFSKL” the “soluble on expression in E. coli” value was “soluble”.
With “MVEKIWFENHPLKYLLWPLLWPLSVLFGAISRSKRQQFQTGRKQAYQAPVPVVVVGNITAGGNGKTPVVVWLVEQLQHLGYKPGVVSRGYGAKAPQYPLVLNDDTPTQHCGDEPKLIHRRTGAPVAVDPVRANAVKALVELDVDIIITDDGLQHYALERDVELVIVDGNRRFGNECLIPLGPLREGVERLQEVDFIITNGGLAHQGEISMSLAPSKAINLKTKQQVDVSELKALVAFAGIGHPPRFFNTLESMHADVKVTKGFADHQDFDQKELEALALQGANVIMTEKDAVKCSDYAQDNWWYLPVSAQLEPKDAERILNRIKEVKATYGSPSAAAALEHHHHHH” the “soluble on expression in E. coli” value was “soluble”.
For “MVELVISPSLTVNSDCLDKLKFNRADAAVWTLSDRQGITKSAPLRVSQLFSRSCPRVLPRQPSTAMAAYGQTQYSAGIQQATPYTAYPPPAQAYGIPSFSTSPTGQSPYTYQMHGTTGFYQGGNGLGNAAGFGSVHQDYPSYPGFPQSQYPQYYGSSYNPPYVPASSICPSPLSTSTYVLQEASHNVPNQSSESLAGEYNTHNGPSTPAKEGDTDRPHRASDGKLRGRSKRSSDPSPAGDNEIERVFVWDLDETIIIFHSLLTGTFASRYGKDTTTSVRIGLMMEEMIFNLADTHLFFNDLEDCDQIHVDDVSSDDNGQDLSTYNFSADGFHSSAPGANLCLGSGVHGGVDWMRKLAFRYRRVKEMYNTYKNNVGGLIGTPKRETWLQLRAELEALTDLWLTHSLKALNLINSRPNCVNVLVTTTQLIPALAKVLLYGLGSVFPIENIYSATKTGKESCFERIMQRFGRKAVYVVIGDGVEEEQGAKKHNMPFWRISCHADLEALRHALELEYL”, the “soluble on expression in E. coli” value was “not soluble”.
For “MVERYSLSPMKDLWTEEAKYRRWLEVELAVTRAYEELGMIPKGVTERIRNNAKIDVELFKKIEEKTNHDVVAFVEGIGSMIGEDSRFFHYGLTSSDVLDTANSLALVEAGKILLESLKEFCDVLWEVANRYKHTPTIGRTHGVHAEPTSFGLKVLGWYSEMKRNVQRLERAIEEVSYGKISGAVGNYANVPPEVEEKALSYLGLKPEPVSTQVVPRDRHAFYLSTLAIVAAGIERIAVEIRHLQRTEVLEVEEPFRKGQRGSSAMPHKKNPITCERLTGLSRMMRAYVDPSLENIALWHERDISHSSVERYVFPDATQTLYYMIVTATNVVRNMKVNEERMKKNIDLTKGLVFSQRVLLKLIEKGLTRKEAYDIVQRNALKTWNSEKHFLEYLLEDEEVKKLVTKEELEELFDISYYLKHVDHIFERFEKE”, the “soluble on expression in E. coli” value was “soluble”.
In the case of “MVESGKAQMESFRIDNNGIQKKSRTKFIAGVGKSLRSAKNLTSKTVQTQFVAYPELAQLLPIFPAERLKKLILNGLDGQEYKQLIDLDQWKQARIFHGYAENLIIPIEKFFHFERFDVHLARFTEADALRLRAMIDRSAHFGFAGICCNYMNNSALKRIFNVEHENFYQTPDERSFDVQCRPGEISITKFGYTVE”, the “soluble on expression in E. coli” value is reported as “not soluble”.
With “MVGKRNLPVISRNFDLSPGVLRFSASRLRLKKGEKKPKFTKDTSAKLPKLQRNGTKFALGHSKTVTLRKTLTPGTVLIVLAGRHKGKRVVFLKQLPQSGLLLVTGPHKINGFPLRRIGQAFVIATSLKVNVSGVKIPEHINDEYFKRKSTAQKTGKNIFASGKTEYTVSEQRKKDIKTVDAPILAAIKKHPEHKFLFGYLGTRFSLGKNQYPHKMQF” the “soluble on expression in E. coli” value was “not soluble”.
In the case of “MVHHSTKLPKNGGSEPKLVGAYLVSGSRSRIVDLINMIRELNAPILVFTRYPTFYQDLGENIKVIWITQASEDGIPPTKLHVIQDYAIKFAKENKYAVVIIDCVEYLLLYNEFASVFKFLASLKDYLIMMNSALVLAVDEKALDEKYYTLLLNEFEPLLEHHHHHH”, the “soluble on expression in E. coli” value is reported as “soluble”.
In the case of “MVIAYVDANLQTNRQTIYFDHDLNRNKYNTIQLKKLTMTQDSDSEYEIERIIDHVSFLEAYESFYGQNVKRFAAIFSEERFKRTKKPQLISNYFFLVKWLGYGNKEMTWEPESNIPDSVYLYEYKKLNNMVMNRMNLKVSLTFTSRRKGYTPPVILEELQERKPKPQFLNMSNMAITLNDNLNNGKFGIVPVPKYKKKFGQNVNYLKFGNEVYKMKNVSFKDSTNNDIDNRVQQHHHEDRSFLQSMIKHNNIVRMRDLFVSYNKLDETVNITSIYDWCHQNLRQQLNNEKVSWKKVCRDILNALSFIHPYGIHQGVSLDHIYYHKGGTYKLSHFNNFFFGKRIPAEKVKSDRVELAPRLYNLKFKLGRNSDIYALAIVLLQCHNKKFSFRVNPSSVMEIEEDIAKGMSAFENKDDRHFLKSLLRARLHVYHGSGHYRFTSSSLLHHPVLQEPTARSVECFYFHSMLASPMKEIIHYHANDKISDVLQRFISLYHTSQEAEDKKYIMMFTKDTSSCDSVVLLNSLENFERVVDIDLTIMKNTLLIAPIILPSPENENCQKFLIIYEQELGGCPIVIETPEVNAAKFAKQLKEYSVSHEYRNRRLGLFPKLPGGDQQENGGLPEFSHHVWQMQLESNDDTVIKNRFDIASEIEMPLSGEMLEWDDVAGIANYGEILRNNSDNTTSRRKRETCSSDELDEAHAKREKVD”, the “soluble on expression in E. coli” value is reported as “not soluble”.
For “MVKETKFYDILGVPVTATDVEIKKAYRKCALKYHPDKNPSEEAAEKFKEASAAYEILSDPEKRDIYDQFGEDGLSGAGGAGGFPGGGFGFGDDIFSQFFGAGGAQRPRGPQRGKDIKHEISASLEELYKGRTAKLALNKQILCKECEGRGGKKGAVKKCTSCNGQGIKFVTRQMGPMIQRFQTECDVCHGTGDIIDPKDRCKSCNGKKVENERKILEVHVEPGMKDGQRIVFKGEADQAPDVIPGDVVFIVSERPHKSFKRDGDDLVYEAEIDLLTAIAGGEFALEHVSGDWLKVGIVPGEVIAPGMRKVIEGKGMPIPKYGGYGNLIIKFTIKFPENHFTSEENLKKLEEILPPRIVPAIPKKATVDECVLADFDPAKYNRTRASRGGANYDSDEEEQGGEGVQCASQ”, the “soluble on expression in E. coli” value was “not soluble”.
For “MVKGPGLYTEIGKKARDLLYKDHNSDQKFSITTFSPAGVAITSTGTKKGDLLLGDVAFQSRRKNITTDLKVCTDSTFLITATVDEAAPGLRSIFSFKVPDQNSGKVELQYLHEYAGISTSMGLTQNPTVNFSGVIGSNVLAVGTDVSFDTKSGNFTKINAGLSFTKEDLIASLTVNDKGDLLNASYYHIVNPLFNTAVGAEVSHKLSSKDSTITVGTQHSLDPLTSVKARVNSAGIASALIQHEWKPKSFFTISGEVDTKSIDKSAKVGLALALKP”, the “soluble on expression in E. coli” value was “soluble”.
With “MVLAVKVQIKEGEKVRRKLIELGALNREYKIKREEGFLLIPVKFPVEGFEVVEVELERVETRPNSYKDVVNIPRELRKFLPSSFDIIGNIAIIEIPSELQNYSNEIGGAIIRVHKSVKAVYMKGGSVEGEYRVRNLIHIAGEKITETIHRENGVRLKLDITKVYFSPRLATERMRVFKMAREGEIVFDMFAGVGPFSILLAKKARMVFACDINPWAIKYLEENIKLNKVKNIIPILSDVTKVCVKADRIIMNLPKYASRFLEHAMRCVNNGGIIHYYGFGPEKDPYGWHVKRINEVAGRLGVKVEILGKRIIRNYAPRQYNIAIDFRVSF” the “soluble on expression in E. coli” value was “soluble”.
For “MVLFSEDHIQETRRRGRIEVICGSMFSGKTEELIRRMKRAKFARQRVEIFKPAIDTRYSEEDVVSHDSHSIASTPIDSSASILLFTSEIDVVGIDEAQFFDDGLIDVCRQLANNGIRVIIAGLDMDFKGNPFGPMPQLCAIADEVSKVHAICVKCGDLASFSHRTVKNDKQVLLGETAEYEPLCRECYLRARGEDGQKI”, the “soluble on expression in E. coli” value was “not soluble”.
In the case of “MVLGTVLLPPNSYGRDQDTSLCCLCTEASESALPDLTEALHRPYGCDVEPQALNEAIRWSSKENLLGATESDPNLFVALYDFVASGDNTLSITKGEKLRVLGYNQNGEWSEVRSKNGQGWVPSNYITPVNSLEKHSWYHGPVSRSAAEYLLSSLINGSFLVRESESSPGQLSISLRYEGRVYHYRINTTADGKVYVTAESRFSTLAELVHHHSTVADGLVTTLHYPAPKCNKPTVYGVSPIHDKWEMERTDITMKHKLGGGQYGEVYVGVWKKYSLTVAVKTLKEDTMEVEEFLKEAAVMKEIKHPNLVQLLGVCTLEPPFYIVTEYMPYGNLLDYLRECNREEVTAVVLLYMATQISSAMEYLEKKNFIHRDLAARNCLVGENHVVKVADFGLSRLMTGDTYTAHAGAKFPIKWTAPESLAYNTFSIKSDVWGKVERDFFLCHFIFFFINALIL”, the “soluble on expression in E. coli” value is reported as “soluble”.
In the case of “MVLLVNIDDNEKWDNTVKGFENFDVYYLSGYVKAFHAHGDGEPKLFFYEDSNIKAINVFMKRDIEKDQNFSGKIPPNTFYDAATPYGYGGFLIEGNVTDESLRTLEKEYSELCLNEGIISEFVRFHPVINNSGTVSSIYDILELGRTVTIELDSREKVWEGFAGNNRNKVRKAKKSGVEIFWGRSPKLFDTFIPMYNETMDNDGASGYYYFKKDFYNSILEDLKYNSLIFYAVFEDRIISMSIILFANKQMHYHLSATDREYRNLAPTNLLLYEAACWGIENGYKTFHLGGGLGSREDSLYQFKKGFNKNSSTYFCIGKKIFDKEKYDELIKIRKQDPYFDENKLFFPLYRG”, the “soluble on expression in E. coli” value is reported as “not soluble”.
For “MVLPKKEFVLSHTFTDVSKMEKDISVFSPGEEHFNVSWNMSISCEGDHLGVFLHCHKSRGKETMWTIDTEHQFTLKTSSGKAYREDDNFNFQFSNAHSYGNGTTEFISWNKLIKDYLIDDVITVEAAVKIIKTTGISKKALKGFEKSNEEFSDVVLAVGDKEFFVLKQFLAYHSSYFKSLLLGKFAESDQKEVTLQDIDPTDFQNLLEVLYGEPAIDDETIDGILHLAHMYDMSVPLRKCEEFLINESEKSMKDQLKIAKQYQLEKLKKACLLKINTVDEIKAAVAGKLSDMDPTVVAALF”, the “soluble on expression in E. coli” value was “not soluble”.
In the case of “MVLRKLSTYRQKRDFEKTPEPSGEAAVASSKQRRFVIQKHDASRLHYDFRLEFDGVFKSWAVTKGPSLDPHDKRLAVEVEDHPLDYGDFEGTIPEGQYGGGTVMLWDRGTWEADDPERGFKKGDLKFTLHGEKLHGSWVLVRMRNDRDGGKRTNWLLIKHRDEYAREGEDILAEDKSVASGRAMAQILEHHHHHH”, the “soluble on expression in E. coli” value is reported as “soluble”.
In the case of “MVLSQTHHHHHRHEGNDRSLISILTDPIVNLFRSIPIEILDQNEELSPSQKDFLDDFLELQNDSDLEESEDFIQESQEVVSSVDDEIKVILNEIINQVETETQLIPKIIIHSDDAEVPEESIEIAVQSFGCPLDSFSGLSDSGVDLTVDDVPDDEDDEITVQTFESTPKELPTVTKFTNCTFIRSQSSARCKAILPDTTYICTLPPVSATFSAPVVTPKKIVKRKKSTSAAAKMAAEVLQNEPHCFIAPSSSIDRPFKLLVQKETFLIDAESMSRISPIFNVMCFGKDFEKMDLSREIVDEKSNDIDCFLRAVHDTSMINSSNFALVLRLSNKYQVDPVIDACQNFIIRQHLDVLRADEILTMLIAAFEHHCKREVVQKLIKRLASEGNSVFTKLKISRYLPAQVYGSVISTSMNLNQAKEHELMNGHVLKMERSKIRWRQSVCEECKSVAECANCEECKKTVCRNHVSKLKCSSDYGAKLAADLKKKIVDFEWQD”, the “soluble on expression in E. coli” value is reported as “not soluble”.
